Measured values published in patent US20230220080A1 (EPIMAB BIOTHERAPEUTICS, published 2023).
Like-named read-outs stand apart in the source and are kept apart here. One block for each binder: values may come before it.

What was measured:
[1] = molecular target: T1, recombinant human IL-20 (human, UniProt Q9NYY1 25-176); experiment: SPR Biacore, Ig captured by anti-Fc, antigen injected
T1 construct: also called rhIL-20; hIL-20
T1 sequence (looked up): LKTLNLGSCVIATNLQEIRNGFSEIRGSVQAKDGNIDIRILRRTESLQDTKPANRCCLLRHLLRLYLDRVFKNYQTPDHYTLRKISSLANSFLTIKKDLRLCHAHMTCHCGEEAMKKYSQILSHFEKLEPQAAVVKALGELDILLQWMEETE
Procedure: (§1) The kinetics of FIT-Ig binding to rhIL-17 and rhIL-20 was determined by surface plasmon resonance (Table 5) with a Biacore X100 instrument (Biacore AB, Uppsala, Sweden) using HBS-EP (10 mM HEPES, pH 7.4, 150 mM NaCl, 3 mM EDTA, and 0.005% surfactant P20) at 25° C. Briefly, goat anti-human IgG Fcγ fragment specific polyclonal antibody (Pierce Biotechnology Inc, Rockford, Ill.) was directly immobilized across a CM5 research grade biosensor chip using a standard amine coupling kit according to manufacturer's instructions. Purified FIT-Ig samples were diluted in HEPES-buffered saline for capture across goat anti-human IgG Fc specific reaction surfaces and injected over reaction matrices at a flow rate of 5 μl/min. The association and dissociation rate constants, kon (M-1s-1) and koff (s-1) were determined under a continuous flow rate of 30 μL/min. […] The equilibrium dissociation constant (M) of the reaction between FIT-Ig and the target proteins was then calculated from the kinetic rate constants by the following formula: KD=koff/kon. Aliquots of antigen samples were also simultaneously injected over a blank reference and reaction CM surface to record and subtract any nonspecific binding background to eliminate the majority of the refractive index change and injection noise. Surfaces were regenerated with two subsequent 25 ml injections of 10 mM Glycine (pH 1.5) at a flow rate of 10 μL/min.

[2] = molecular target: T1, recombinant human IL-20; experiment: cell-based or functional assay
[3] = molecular target: T2, hFactor IX (Enzyme Research Laboratory) (human, UniProt P00740 47-461); experiment: SPR Biacore X100, Ig captured by anti-Fc, 500 nM antigen
T2 construct: also called FIX
Procedure: (§2) Affinity measurement by surface plasmon resonance: The kinetics of FIT-Ig binding to hFactor IX and hFactor X (Enzyme Research Laboratory) was determined by surface plasmon resonance with a Biacore X100 instrument (Biacore AB, Uppsala, Sweden) using HBS-EP (10 mM HEPES, pH 7.4, 150 mM NaCl, 3 mM EDTA, and 0.005% surfactant P20) at 25° C. Briefly, goat anti-human IgG Fc fragment specific polyclonal antibody (Pierce Biotechnology Inc, Rockford, Ill.) was directly immobilized across a CM5 research grade biosensor chip using a standard amine coupling kit according to manufacturer's instructions. Purified FIT-Ig samples were diluted in HEPES-buffered saline for capture across goat anti-human IgG Fc specific reaction surfaces and injected over reaction matrices at a flow rate of 5 μl/min. The association and dissociation rate constants, kon (M-1s-1) and koff (s-1) were determined under a continuous flow rate of 30 μL/min. Rate constants were derived by making kinetic binding measurements at 500 nM antigen concentrations. The equilibrium dissociation constant (M) of the reaction between FIT-Ig and the target proteins was then calculated from the kinetic rate constants by the following formula: KD=koff/kon. Aliquots of antigen samples were also simultaneously injected over a blank reference and reaction CM surface to record and subtract any nonspecific binding background to eliminate the majority of the refractive index change and injection noise. Surfaces were regenerated with two subsequent 25 ml injections of 10 mM Glycine (pH 1.5) at a flow rate of 10 μL/min. The anti-Fc antibody immobilized surfaces were completely regenerated and retained their full capture capacity over twelve cycles.

[4] = molecular target: T3, hFactor X (Enzyme Research Laboratory) (human, UniProt P00742 41-488, limits assumed); experiment: as above
T3 construct: also called FX
Procedure: as §2

[5] = molecular target: Factor IXa (UniProt P00740 47-461, limits assumed); experiment: method not stated
[6] = molecular target: T4, recombinant human IL-17 (human, UniProt Q16552 24-155); experiment: SPR Biacore, Ig captured by anti-Fc, antigen injected
T4 construct: also called rhIL-17; hIL-17
T4 sequence (Q16552 24-155 limits assumed): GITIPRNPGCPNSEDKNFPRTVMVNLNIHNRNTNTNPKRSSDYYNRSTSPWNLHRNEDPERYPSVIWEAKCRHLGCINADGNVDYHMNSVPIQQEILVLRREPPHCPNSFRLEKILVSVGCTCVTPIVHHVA
Procedure: as §1

[7] = molecular target: T4, recombinant human IL-17; experiment: cell-based or functional assay
[8] = molecular target: T5, human PD-L1, recombinant protein (human, UniProt Q9NZQ7 19-239, limits assumed); experiment: method not stated
T5 construct: also called rhPD-L1; PD-L1-his
T5 sequence (Q9NZQ7 19-239 limits assumed): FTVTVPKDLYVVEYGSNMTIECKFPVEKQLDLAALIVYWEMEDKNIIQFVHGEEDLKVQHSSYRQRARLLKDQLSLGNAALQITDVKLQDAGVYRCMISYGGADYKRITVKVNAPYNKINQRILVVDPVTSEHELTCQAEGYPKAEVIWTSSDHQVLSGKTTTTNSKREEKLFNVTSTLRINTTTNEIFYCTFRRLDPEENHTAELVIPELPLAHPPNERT

[9] = molecular target: T5, human PD-L1, recombinant protein; experiment: method not stated; remark: listed apart in the source

B2: FIT014a Factor IX (Factor IX Ab)/Factor X (Factor X Ab) (bispecific antibody, human IgG4 S228P, kappa)
chain 1: DIQMTQSPSSLSASVGDRVTITCKASRNIERQLAWYQQKPGQAPELLIYQASRKESGVPDRFSGSRYGTDFTLTISSLQPEDIATYYCQQYSDPPLTFGGGTKVEIKRTVAAPSVFIFPPSDEQLKSGTASVVCLLNNFYPREAKVQWKVDNALQSGNSQESVTEQDSKDSTYSLSSTLTLSKADYEKHKVYACEVTHQGLSSPVTKSFNRGECQVQLVQSGSELKKPGASVKVSCKASGYTFTDNNMDWVRQAPGQGLEWMGDINTRSGGSIYNEEFQDRVIMTVDKSTDTAYMELSSLRSEDTATYHCARRKSYGYYLDEWGEGTLVTVSSASTKGPSVFPLAPCSRSTSESTAALGCLVKDYFPEPVTVSWNSGALTSGVHTFPAVLQSSGLYSLSSVVTVPSSSLGTQTYTCNVDHKPSNTKVDKRVESKYGPPCPPCPAPEFLGGPSVFLFPPKPKDTLMISRTPEVTCVVVDVSQEDPEVQFNWYVDGVEVHNAKTKPREEQYNSTYRVVSVLTVLHQDWLNGKEYKCKVSNKGLPSSIEKTISKAKGQPREPQVYTLPPSQEEMTKNQVSLTCLVKGFYPSDIAVEWESNGQPENNYKTTPPVLDSDGSFFLYSKLTVDKSRWQEGNVFSCSVMHEALHNHYTQESLSLSP
chain 2: QVQLVESGGGLVQPGGSLRLSCAASGFTFSYYDIQWVRQAPGKGLEWVSSISPSGQSTYYRREVKGRFTISRDNSKNTLYLQMNSLRAEDTAVYYCARRTGREYGGGWYFDYWGQGTLVTVSSASTKGPSVFPLAPSSKSTSGGTAALGCLVKDYFPEPVTVSWNSGALTSGVHTFPAVLQSSGLYSLSSVVTVPSSSLGTQTYICNVNHKPSNTKVDKKVEPKSC
chain 3: DIQMTQSPSSLSASVGDRVTITCKASRNIERQLAWYQQKPGQAPELLIYQASRKESGVPDRFSGSRYGTDFTLTISSLQPEDIATYYCQQYSDPPLTFGGGTKVEIKRTVAAPSVFIFPPSDEQLKSGTASVVCLLNNFYPREAKVQWKVDNALQSGNSQESVTEQDSKDSTYSLSSTLTLSKADYEKHKVYACEVTHQGLSSPVTKSFNRGEC
notes: leader left out; also called FIT-Ig 014a
Kd [3]: 9.91 nM
koff [3]: 0.000332 s⁻¹
kon [3]: 33500 M⁻¹ s⁻¹
Kd [4]: 10 nM
koff [4]: 0.000776 s⁻¹
kon [4]: 77500 M⁻¹ s⁻¹

B3: FIT14-Ig Factor IXa/Factor X (bispecific antibody, human IgG4 S228P, kappa)
chain 1: B2 chain 1
chain 2: B2 chain 2
chain 3: B2 chain 3
notes: leader left out; also called FIT-Ig 014; FIT-Ig 14
Kd [5]: 9.9 nM

B5: FIT012b-Ig EGFR (panitumumab)/PD-L1 (1B12) (bispecific antibody, human IgG1, kappa)
chain 1: not shown
chain 2: QVQLQESGPGLVKPSETLSLTCTVSGGSVSSGDYYWTWIRQSPGKGLEWIGHIYYSGNTNYNPSLKSRLTISIDTSKTQFSLKLSSVTAADTAIYYCVRDRVTGAFDIWGQGTMVTVSSASTKGPSVFPLAPSSKSTSGGTAALGCLVKDYFPEPVTVSWNSGALTSGVHTFPAVLQSSGLYSLSSVVTVPSSSLGTQTYICNVNHKPSNTKVDKKVEPKSC
chain 3: not shown
notes: leader left out
Kd [8]: 3.89 nM

B6: FIT012d-Ig EGFR (panitumumab)/PD-L1 (10A5) (bispecific antibody)
chain 1: not shown
chain 2: B5 chain 2
chain 3: not shown
notes: leader left out
Kd [9]: 0.58 nM

B10: Anti-IL-17/IL-20 FIT1-Ig (bispecific antibody, human IgG1, kappa)
chain 1: not shown
chain 2: QVQLVQSGAEVKKPGSSVKVSCKASGYSFTDYHIHWVRQAPGQGLEWMGVINPMYGTTDYNQRFKGRVTITADESTSTAYMELSSLRSEDTAVYYCARYDYFTGTGVYWGQGTLVTVSSASTKGPSVFPLAPSSKSTSGGTAALGCLVKDYFPEPVTVSWNSGALTSGVHTFPAVLQSSGLYSLSSVVTVPSSSLGTQTYICNVNHKPSNTKVDKKVEPKSC
chain 3: not shown
notes: three-polypeptide FIT-Ig, no linker, human IgG1 Fc; described as tetravalent, so two copies of each chain
Kd [6]: 3.64 pM
koff [6]: 3.88e-05 s⁻¹
kon [6]: 1.07e+07 M⁻¹ s⁻¹
Kd [1]: 0.0273 nM
koff [1]: 3.82e-05 s⁻¹
kon [1]: 1.4e+06 M⁻¹ s⁻¹
Neutralization Potency IC50 (GROα production by Hs27 cells) [7]: 102 pM
Neutralization Potency IC50 (IL-20R+ BAF3 cell proliferation) [2]: 54 pM

B11: Anti-IL-17/IL-20 FIT3-Ig (bispecific antibody, human IgG1, kappa)
chain 1: not shown
chain 2: B10 chain 2
chain 3: not shown
notes: three-polypeptide FIT-Ig with GGGGSGS linker; tetravalent
Kd [6]: 1.1 pM
koff [6]: 9.58e-06 s⁻¹
kon [6]: 8.71e+06 M⁻¹ s⁻¹
Kd [1]: 0.0273 nM
koff [1]: 3.82e-05 s⁻¹
kon [1]: 1.4e+06 M⁻¹ s⁻¹
Neutralization Potency IC50 (GROα production by Hs27 cells) [7]: 146 pM
Neutralization Potency IC50 (IL-20R+ BAF3 cell proliferation) [2]: 72 pM

B12: Anti-IL-17/IL-20 FIT2-Ig (bispecific antibody, human IgG1, kappa)
chain 1: not shown
chain 2: B10 chain 2
chain 3: not shown
notes: three-polypeptide FIT-Ig with GSG linker; tetravalent
Kd [6]: 1.65 pM
koff [6]: 1.53e-05 s⁻¹
kon [6]: 9.24e+06 M⁻¹ s⁻¹
Kd [1]: 0.0195 nM
koff [1]: 3.5e-05 s⁻¹
kon [1]: 1.8e+06 M⁻¹ s⁻¹
Neutralization Potency IC50 (GROα production by Hs27 cells) [7]: 137 pM
Neutralization Potency IC50 (IL-20R+ BAF3 cell proliferation) [2]: 50 pM

The remaining lines, values ahead:

Kd [1]: 0.05 nM
koff [1]: 8.3e-05 s⁻¹
kon [1]: 1.7e+06 M⁻¹ s⁻¹
Neutralization Potency IC50 (IL-20R+ BAF3 cell proliferation) [2]: 50 pM
B1: anti-hIL-20 mAb (clone 15D2) (antibody, V domains shown)
VH: QVQLVQSGAEVKRPGASVKVSCKASGYTFTNDIIHWVRQAPGQRLEWMGWINAGYGNTQYSQNFQDRVSITRDTSASTAYMELISLRSEDTAVYYCAREPLWFGESSPHDYYGMDVWGQGTTVTVSS
VL: AIQLTQSPSSLSASVGDRVTITCRASQGISSALAWYQQKPGKAPKLLIYDASSLESGVPSRFSGSGSGTDFTLTISSLQPEDFATYYCQQFNSYPLTFGGGTKVEIK
notes: parental mAb

Kd [6]: 21.8 pM
koff [6]: 1.8e-05 s⁻¹
kon [6]: 824000 M⁻¹ s⁻¹
Neutralization Potency IC50 (GROα production by Hs27 cells) [7]: 101 pM
B4: anti-IL-17 mAb (clone LY) (antibody, V domains shown)
VH: QVQLVQSGAEVKKPGSSVKVSCKASGYSFTDYHIHWVRQAPGQGLEWMGVINPMYGTTDYNQRFKGRVTITADESTSTAYMELSSLRSEDTAVYYCARYDYFTGTGVYWGQGTLVTVSS
VL: DIVMTQTPLSLSVTPGQPASISCRSSRSLVHSRGNTYLHWYLQKPGQSPQLLIYKVSNRFIGVPDRFSGSGSGTDFTLKISRVEAEDVGVYYCSQSTHLPFTFGQGTKLEIK
notes: parental mAb

Kd [9]: 0.735 nM
B7: PD-L1 antibody 10A5 (antibody, V domains shown)
VH: QVQLVQSGAEVKKPGASVKVSCKASGYTFTSYDVHWVRQAPGQRLEWMGWLHADTGITKFSQKFQGRVTITRDTSASTAYMELSSLRSEDTAVYYCARERIQLWFDYWGQGTLVTVSS
VL: DIQMTQSPSSLSASVGDRVTITCRASQGISSWLAWYQQKPEKAPKSLIYAASSLQSGVPSRFSGSGSGTDFTLTISSLQPEDFATYYCQQYNSYPYTFGQGTKLEIK
notes: parental mAb

Kd [5]: 13 nM
kon [5]: 27400 M⁻¹ s⁻¹
Kd [3]: 13 nM
koff [3]: 0.000355 s⁻¹
kon [3]: 27400 M⁻¹ s⁻¹
B8: Factor IXa mAb (antibody, V domains shown)
VH: QVQLVESGGGLVQPGGSLRLSCAASGFTFSYYDIQWVRQAPGKGLEWVSSISPSGQSTYYRREVKGRFTISRDNSKNTLYLQMNSLRAEDTAVYYCARRTGREYGGGWYFDYWGQGTLVTVSS
VL: DIQMTQSPSSLSASVGDRVTITCKASRNIERQLAWYQQKPGQAPELLIYQASRKESGVPDRFSGSRYGTDFTLTISSLQPEDIATYYCQQYSDPPLTFGGGTKVEIK
notes: parental mAb; also called Factor IX mAb; mAb FIX

Kd [4]: 45.1 nM
koff [4]: 0.00142 s⁻¹
kon [4]: 31500 M⁻¹ s⁻¹
B9: Factor X mAb (antibody, V domains shown)
VH: QVQLVQSGSELKKPGASVKVSCKASGYTFTDNNMDWVRQAPGQGLEWMGDINTRSGGSIYNEEFQDRVIMTVDKSTDTAYMELSSLRSEDTATYHCARRKSYGYYLDEWGEGTLVTVSS
VL: B8 VL
notes: parental mAb; also called mAb FX; Factor X Ab
